Values quoted from earlier work in PMC10451079.
Each block holds one substance with its values, some of them ahead of it.

Legend:
NGALR (Mus musculus) = NGALR (Mus musculus) (UniProt Q9D9E0); test: ligand-cell binding, Scatchard
MC3R = MC3R (UniProt P41968)
MC1R = MC1R (UniProt Q01726)
MC4R = MC4R (UniProt P32245); test: saturation and competition binding
[1] = target: LRP2 (megalin) (Homo sapiens) (UniProt P98164); test: SPR
[2] = target: NGALR 1-105 (Homo sapiens) (UniProt Q8WUG5)
megalin (Homo sapiens) = megalin (Homo sapiens) (UniProt P98164)

Chain of UniProt Q9D9E0 (Q9D9E0 whole entry): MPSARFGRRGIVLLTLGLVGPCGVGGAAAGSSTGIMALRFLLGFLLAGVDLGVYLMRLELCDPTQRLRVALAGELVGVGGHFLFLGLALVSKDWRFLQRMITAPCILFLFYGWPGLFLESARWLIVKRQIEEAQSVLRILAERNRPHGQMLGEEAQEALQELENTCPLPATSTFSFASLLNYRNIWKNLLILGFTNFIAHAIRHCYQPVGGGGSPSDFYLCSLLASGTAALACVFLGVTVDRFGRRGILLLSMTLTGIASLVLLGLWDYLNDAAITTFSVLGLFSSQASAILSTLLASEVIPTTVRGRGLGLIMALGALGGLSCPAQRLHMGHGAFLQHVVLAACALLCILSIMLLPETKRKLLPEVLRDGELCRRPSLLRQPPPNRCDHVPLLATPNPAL
Chain of UniProt Q8WUG5 (Q8WUG5 1-105): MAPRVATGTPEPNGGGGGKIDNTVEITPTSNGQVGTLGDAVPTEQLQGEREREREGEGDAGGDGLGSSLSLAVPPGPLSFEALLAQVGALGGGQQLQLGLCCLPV
Chain of UniProt Q01726 (Q01726 whole entry): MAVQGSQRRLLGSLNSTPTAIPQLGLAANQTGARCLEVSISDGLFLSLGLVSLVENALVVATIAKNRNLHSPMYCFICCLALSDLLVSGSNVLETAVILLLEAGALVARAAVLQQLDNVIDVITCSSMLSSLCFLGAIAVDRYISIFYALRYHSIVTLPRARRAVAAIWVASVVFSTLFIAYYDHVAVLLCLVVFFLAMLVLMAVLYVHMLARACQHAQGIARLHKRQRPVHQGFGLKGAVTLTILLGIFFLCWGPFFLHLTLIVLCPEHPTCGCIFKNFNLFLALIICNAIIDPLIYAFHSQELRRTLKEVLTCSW
Chain of UniProt P32245 (P32245 whole entry): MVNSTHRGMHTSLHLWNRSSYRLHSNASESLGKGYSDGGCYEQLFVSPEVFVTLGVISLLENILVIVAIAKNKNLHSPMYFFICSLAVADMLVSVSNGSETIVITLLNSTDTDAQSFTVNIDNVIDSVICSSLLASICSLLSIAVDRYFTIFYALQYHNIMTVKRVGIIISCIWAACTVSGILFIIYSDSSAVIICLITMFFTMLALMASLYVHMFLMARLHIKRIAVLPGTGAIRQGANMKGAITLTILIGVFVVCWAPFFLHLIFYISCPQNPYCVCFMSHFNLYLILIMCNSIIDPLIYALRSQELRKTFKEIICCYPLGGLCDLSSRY
Chain of UniProt P41968 (P41968 whole entry): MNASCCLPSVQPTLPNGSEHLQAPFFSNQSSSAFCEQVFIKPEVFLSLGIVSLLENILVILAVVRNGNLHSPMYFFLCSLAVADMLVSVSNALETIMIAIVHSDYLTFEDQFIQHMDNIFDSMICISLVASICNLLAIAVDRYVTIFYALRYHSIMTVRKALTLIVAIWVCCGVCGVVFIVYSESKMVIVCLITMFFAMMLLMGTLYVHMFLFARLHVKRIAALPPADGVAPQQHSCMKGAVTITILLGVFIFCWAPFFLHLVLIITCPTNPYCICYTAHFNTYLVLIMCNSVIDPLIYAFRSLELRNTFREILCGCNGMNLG

Substance: LCN2 (24p3) (from UniProt P11672)
Kd (NGALR (Mus musculus)): 0.092 nM

Substance: LCN2 (from UniProt P11672)
Kd (MC3R): 82.1 nM
Kd (MC1R): 87 nM
Kd (MC4R): 51.4 nM

Substance: LCN2 with ferric-enterobactin (from UniProt P80188)
Kd [2]: 20 µM

Continued, values first:

Kd [1]: 60 nM
Substance: LCN2 (from UniProt P80188)

Kd (megalin (Homo sapiens)): 420 nM
Substance: α1M (from UniProt P02760)
